Measurements reported in IntAct's records for PubMed 10764785.

Biological target: rpod_ecoli rpoD (UniProt P00579)
Sequence (P00579 whole entry): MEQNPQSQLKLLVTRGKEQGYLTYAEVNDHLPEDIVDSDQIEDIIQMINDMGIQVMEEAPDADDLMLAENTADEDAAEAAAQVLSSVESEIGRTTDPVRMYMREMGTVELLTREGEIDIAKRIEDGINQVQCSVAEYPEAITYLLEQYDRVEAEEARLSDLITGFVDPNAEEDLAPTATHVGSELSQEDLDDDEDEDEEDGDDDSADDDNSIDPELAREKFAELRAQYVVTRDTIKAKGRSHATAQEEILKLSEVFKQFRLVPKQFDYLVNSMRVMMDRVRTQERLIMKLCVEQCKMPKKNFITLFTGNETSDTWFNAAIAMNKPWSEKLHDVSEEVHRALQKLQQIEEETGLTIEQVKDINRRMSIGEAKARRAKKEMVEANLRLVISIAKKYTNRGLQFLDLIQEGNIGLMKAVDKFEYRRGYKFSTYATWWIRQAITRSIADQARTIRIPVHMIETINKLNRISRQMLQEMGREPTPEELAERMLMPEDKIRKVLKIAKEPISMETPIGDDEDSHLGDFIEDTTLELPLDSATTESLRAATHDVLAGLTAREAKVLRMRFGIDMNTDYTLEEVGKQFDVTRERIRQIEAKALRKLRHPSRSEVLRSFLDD

Substance	effect of a mutation on the interaction
DNA-directed RNA polymerase subunit beta' (Escherichia coli (strain K12)) (from UniProt P0A8T7) N309D	increasing interaction
DNA-directed RNA polymerase subunit beta' (Escherichia coli (strain K12)) (from UniProt P0A8T7) Q300E	increasing interaction
DNA-directed RNA polymerase subunit beta' (Escherichia coli (strain K12)) (from UniProt P0A8T7) R275Q	decreasing interaction
DNA-directed RNA polymerase subunit beta' (Escherichia coli (strain K12)) (from UniProt P0A8T7) R297S	decreasing interaction

The next lines start with the values.

effect of a mutation on the interaction	Substance
decreasing interaction	DNA-directed RNA polymerase subunit beta' (Escherichia coli (strain K12)) (from UniProt P0A8T7) A302D
decreasing interaction	DNA-directed RNA polymerase subunit beta' (Escherichia coli (strain K12)) (from UniProt P0A8T7) E295K
decreasing interaction	DNA-directed RNA polymerase subunit beta' (Escherichia coli (strain K12)) (from UniProt P0A8T7) R293Q
